Test results published in the supplement of paper PMC9170038.

Test system: MS2 coat protein
Experiment: apparent KD of MS2 coat protein; designed switch direction (-1 OFF switch, 1 ON switch): -1; higher = weaker reporter binding
In short: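 Apparent KD, taken as the median over clusters for each design, was obtained by curve-fitting normalised cluster fluorescence. Designed RNA switches had been transcribed on Illumina chips by stalled E. coli RNA polymerase and titrated with SNAP-549-labelled MS2 coat protein, doubling from 0.7 or 1.5 nM to 3 µM.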

[1] = Eterna round: R95, input ligand: microRNA oligo, concentration not stated
[2] = Eterna round: R95, input ligand: FMN 200 uM
[3] = Eterna round: R95, input ligand: none
[4] = input ligand: microRNA oligo, concentration not stated

Sequence: AUAUAGUCAGGAUAUCGAAGUGUGUGUUGGUUUGUAAUUUACGAGAAGGGACAUGAGGAUCACCCAUGUAGGAA [JR_Exclusion4)Sub002] (puzzle: Exclusion 4)
- apparent KD of MS2 coat protein [1]: 0.0358 µM

Sequence: CUCUUGUCAGGAUAUCUAAGCUGCCUCCCAGUAGCCGAAUUAGAGAAGGGACAUGAGGAUCACCCAUGUAAACG [Enaeren] (puzzle: Exclusion 4)
- apparent KD of MS2 coat protein [1]: 0.106 µM

Sequence: AGAAAUGCCCGUGACCACAAGCUUUUUGCUUGUCUUACUACAUGAGGAUCACCCAUGUAACAUGGGCUCCUGACAAU [Maleisar] (puzzle: Sensor v3, turn-off variant 2)
- apparent KD of MS2 coat protein [2]: 0.0147 µM
- apparent KD of MS2 coat protein [1]: 0.0096 µM
- apparent KD of MS2 coat protein [3]: 0.0125 µM

Sequence: AAGAAACAUGAGGAUCACCCAUGUGAGGAUAUGAAAAAGAAAAGAAAAGAAAGAAGUAUCAGAAGGCACAAAGG [salish99-ex1_r3_023] (puzzle: Exclusion 1)
- apparent KD of MS2 coat protein [2]: 0.0576 µM
- apparent KD of MS2 coat protein [1]: 0.0386 µM
- apparent KD of MS2 coat protein [3]: 0.0628 µM

Sequence: UUUAUGUCAGGAUAUACAUGAGGAUCACCCAUGUAUAUCUUAAAGUAUACAUGGGAAUGUAGAAGGGACCUCCU [Omei Ex3 Pseudoloop 5] (Eterna round: R97, puzzle: Exclusion 3)
- apparent KD of MS2 coat protein (input ligand: FMN 200 uM): 0.0438 µM
- apparent KD of MS2 coat protein (input ligand: none): 0.035 µM

Sequence: CCCAGUUAGAGAGGAUAUCUUACAUGAGGAUCACCCAUGUAAUAAAUGAGGAUUUCGGGUGUCUAAGAGAAGGCUCGGAUAGGC [Ostracism 29 - Jieux - Exclusion NG 2] (Eterna round: R96, puzzle: Exclusion NG 2)
- apparent KD of MS2 coat protein (input ligand: FMN 200 uM): 0.0379 µM
- apparent KD of MS2 coat protein [4]: 0.0153 µM
- apparent KD of MS2 coat protein (input ligand: none): 0.0264 µM

Sequence: UUUUCACAUGAGGAUCACCCAUGUGAGGAUAUGGUUUCGCUGGCCGUAGCCAGUGGAACCAGAAGGCGCAUGAU [Mat - Exclusion 1 - JL Mod - D6] (Eterna round: R97, puzzle: Exclusion 1)
- apparent KD of MS2 coat protein (input ligand: FMN 200 uM): 0.0353 µM
- apparent KD of MS2 coat protein (input ligand: none): 0.0302 µM

Sequence: GUGUACGGAGGAUAUAUGUGGGCAGGCUGACCUGCAGCUUCACAUGAGGAUCACCCAUGUAGAAGGCUGUACAC [Mat - Exclusion 2 - Mod of Hyphema - D99] (puzzle: Exclusion 2)
- apparent KD of MS2 coat protein [1]: 0.0207 µM

Sequence: AAAACCAGAGGAUAUGCGCAUAGAUAAGACUUUGUUUCUUAACAUGAGGAUCACCCAUGUAGAAGGCUGUAAAA [Ex2 #71] (Eterna round: R97, puzzle: Exclusion 2)
- apparent KD of MS2 coat protein (input ligand: FMN 200 uM): 0.0206 µM
- apparent KD of MS2 coat protein (input ligand: none): 0.022 µM

Sequence: CUUGUUUAUGUGAGGAUAUACUGUUAGUAAUGUUUGUAGAAGGUACAUGAGGAUCACCCAUGUUUAUUUCCUUU [JR_BME4_Sub045] (puzzle: Brourd's mod of Exclusion 4)
- apparent KD of MS2 coat protein [1]: 0.0138 µM

Sequence: AAAAAGUUAGGAUAUACAUGAGGAUCACCCAUGUACAUAUAUGGAGAAAAAAACAGUAGUAGAAGGGACAAAAA [EX2 Malc#12] (Eterna round: R96, puzzle: Exclusion 3)
- apparent KD of MS2 coat protein (input ligand: FMN 200 uM): 0.0288 µM
- apparent KD of MS2 coat protein [4]: 0.0233 µM
- apparent KD of MS2 coat protein (input ligand: none): 0.0292 µM

Sequence: AAGAAACAUGAGGAUCACCCAUGUGAGGAUAUGAAAAAGAAAAGAAAAUAAAGAAGAAUCAGAAGGCACAAAGG [Mat - Mod of Hog D3] (puzzle: Exclusion 1)
- apparent KD of MS2 coat protein [2]: 0.0377 µM
- apparent KD of MS2 coat protein [1]: 0.0344 µM
- apparent KD of MS2 coat protein [3]: 0.0461 µM

Sequence: UCGGCGCGAGGAUAUGCGGCUUGUGCUUCGGGCCCUCGCGUACAUGAGGAUCACCCAUGUAGAAGGCGCGCCGC [Apr-15 SS2-44] (puzzle: Exclusion 2)
- apparent KD of MS2 coat protein [1]: 0.0538 µM

Sequence: GAUCAACAAUCGAGCGGAUACAUGAGGAUCACCCAUGUCCGUAGUCGGGUAAAUAACAAGCUUUUUUCGCCGUCCCU [Eternabot (Original) Solution 42] (Eterna round: R97, puzzle: Sensor, turn-off variant 1)
- apparent KD of MS2 coat protein (input ligand: FMN 200 uM): 0.0154 µM
- apparent KD of MS2 coat protein (input ligand: none): 0.0149 µM

Sequence: UGAGUGCUGCGAGGAUAUACAUGAGGAUCACCCAUGUAAGCCUGUGAGGCUUUGCCUCACAGGAUGUAGAAGGCGCAGUACUCU [JL ENG2 1.17] (Eterna round: R96, puzzle: Exclusion NG 2)
- apparent KD of MS2 coat protein (input ligand: FMN 200 uM): 0.0125 µM
- apparent KD of MS2 coat protein [4]: 0.00919 µM
- apparent KD of MS2 coat protein (input ligand: none): 0.0135 µM

Sequence: AUGUGCACGCUGCGGUCCUACAUGAGGAUCACCCAUGUGGUCUGGUGGCGUGGGUCGCCGGACUUGGCUCGUCUUGG [salish99_S_TOV1_R5_031] (Eterna round: R97, puzzle: Sensor, turn-off variant 1)
- apparent KD of MS2 coat protein (input ligand: FMN 200 uM): 0.0156 µM
- apparent KD of MS2 coat protein (input ligand: none): 0.0159 µM

Sequence: UUGCGAAGAGGAUAUUUUGUCAUCAACAUGAGGAUCACCCAUGUCUUCCUUUAUGCUAUAGAAGAAGGCUUCCAGU [Eternabot (L2) Solution 63] (Eterna round: R97, puzzle: Exclusion 5)
- apparent KD of MS2 coat protein (input ligand: FMN 200 uM): 0.0599 µM
- apparent KD of MS2 coat protein (input ligand: none): 0.0371 µM

Sequence: AAAACUUUGAGAGGAUAUCUGAAAGGAAGUGUAAGAGAAGGCUCAGAGGACAUGAGGAUCACCCAUGUACGUCAUGGGCUCCGA [PowerStrip EXNG 1.15] (Eterna round: R96, puzzle: Exclusion NG 1)
- apparent KD of MS2 coat protein (input ligand: FMN 200 uM): 0.0498 µM
- apparent KD of MS2 coat protein [4]: 0.0396 µM
- apparent KD of MS2 coat protein (input ligand: none): 0.111 µM

Sequence: UGGUCACAUGAGGAUCACCCAUGUCAGGAUAUCUACAUUGAAGCUGCGGCUUCAAUGUAGAGAAGGGACAUAAU [E1/7-B3] (Eterna round: R97, puzzle: Exclusion 1)
- apparent KD of MS2 coat protein (input ligand: FMN 200 uM): 0.314 µM
- apparent KD of MS2 coat protein (input ligand: none): 0.272 µM

Sequence: GAAAAGUGAGGAUAUGGUAAAAAAAAAAGAAAAAAAAAACUCCAGAAGGCACAUGAGGAUCACCCAUGUAAAAG [salish99_ex4_r3_003] (puzzle: Exclusion 4)
- apparent KD of MS2 coat protein [2]: 0.0419 µM
- apparent KD of MS2 coat protein [1]: 0.0195 µM
- apparent KD of MS2 coat protein [3]: 0.0586 µM

Sequence: GGAGAACAUGAGGAUCACCCAUGUAAGGAUAUGCAAAAGGAUAUAGAAGGAAAAAAAAGCAGAAGGUACAAAGG [salish99-ex1_r3_101] (puzzle: Exclusion 1)
- apparent KD of MS2 coat protein [2]: 0.0795 µM
- apparent KD of MS2 coat protein [1]: 0.0819 µM
- apparent KD of MS2 coat protein [3]: 0.0751 µM

Sequence: AAUAUUUUAGGAUAUGGCGGAAUAGACAUGAGGAUCACCCAUGUUAGAGGCGUGGUGAAGUUAGAAGGGAGGUGUU [Eternabot (L1) Solution 6] (Eterna round: R97, puzzle: Exclusion 5)
- apparent KD of MS2 coat protein (input ligand: FMN 200 uM): 0.06 µM
- apparent KD of MS2 coat protein (input ligand: none): 0.113 µM

Sequence: ACGCUGUGAGGAUAUACAUGAGGAUCACCCAUGUUAAGGAAGUCUUGGUUAAUUUGGAGUAGAAGGCGCUUAUU [JR_Ex3_Sub016] (Eterna round: R97, puzzle: Exclusion 3)
- apparent KD of MS2 coat protein (input ligand: FMN 200 uM): 0.0315 µM
- apparent KD of MS2 coat protein (input ligand: none): 0.0349 µM

Sequence: UUUGUUUUGCAAGGAUAUGUUUAAUUUUAGUUUCCUUACACAUGAGGAUCACCCAUGUUAUACUUACAGAAGGUGCGUAAUUUG [Excl-NG2-LRO03] (Eterna round: R96, puzzle: Exclusion NG 2)
- apparent KD of MS2 coat protein [4]: 0.122 µM

Sequence: AUGGGUCGGGAGGAUAUUCGGGCUCAUGGGCUUGGAGAAGGCUCGACAUGAGGAUCACCCAUGUAAGUGUUCUU [-25, -23.1 kcal, A 22%] (Eterna round: R97, puzzle: Exclusion 6)
- apparent KD of MS2 coat protein (input ligand: FMN 200 uM): 0.55 µM
- apparent KD of MS2 coat protein (input ligand: none): 0.0322 µM

Sequence: GUUAACGAAGAGGAUAUAUGAUAUCAAAGCUUCAUAGAAGGCUUCACAUGAGGAUCACCCAUGUGAUCUUCAAU [jl-ex6-4.08 ViennaUCT mod] (Eterna round: R97, puzzle: Exclusion 6)
- apparent KD of MS2 coat protein (input ligand: FMN 200 uM): 0.232 µM
- apparent KD of MS2 coat protein (input ligand: none): 0.0426 µM

Sequence: AACGUGUGAGGAUAUGCCGUGCCCUUCCGGAAGGAGCGGGUGCAGAAGGCACAUGAGGAUCACCCAUGUCGGCA [Excls4-V] (puzzle: Exclusion 4)
- apparent KD of MS2 coat protein [1]: 0.0314 µM

Sequence: AAUAACAAUGUGAGGAUAUCUAGAGCUUCGGCUCUAGAGAAGGCACAUGAGGAUCACCCAUGUCUCAAUAACAA [BmEx4/2-E6] (Eterna round: R97, puzzle: Brourd's mod of Exclusion 4)
- apparent KD of MS2 coat protein (input ligand: FMN 200 uM): 0.339 µM
- apparent KD of MS2 coat protein (input ligand: none): 0.0546 µM

Sequence: CAUUAUGUUGAGGAUAUGCGCCGGAAAACUGACGCAGAAGGCGACACAUGAGGAUCACCCAUGUCAGUUUUCGA [salish99_ex6_r004_426] (Eterna round: R97, puzzle: Exclusion 6)
- apparent KD of MS2 coat protein (input ligand: FMN 200 uM): 0.136 µM
- apparent KD of MS2 coat protein (input ligand: none): 0.273 µM

Sequence: UUUUUAUAUGAAGGAUAUACUUAACAUGAGGAUCACCCAUGUGGUGUUGUGAGUGAGUGAGUUUAGUAGAAGGUCAAUUCUUUA [JMF's solution 83] (Eterna round: R96, puzzle: Exclusion NG 2)
- apparent KD of MS2 coat protein (input ligand: FMN 200 uM): 0.866 µM
- apparent KD of MS2 coat protein [4]: 0.443 µM
- apparent KD of MS2 coat protein (input ligand: none): 0.463 µM

Sequence: GGAAUGAGAGAGGAUAUGGGAGGGAGGACCGGACCAGAAGGCUCGACAUGAGGAUCACCCAUGUAGAGAUCCUC [AK-MS2ROC-r4-exclusion6-6.10] (Eterna round: R97, puzzle: Exclusion 6)
- apparent KD of MS2 coat protein (input ligand: FMN 200 uM): 0.26 µM
- apparent KD of MS2 coat protein (input ligand: none): 0.0757 µM

Sequence: UAAAGAGCAGGAUAUCUAAUGUAUCACAUGAGGAUCACCCAUGUCCAGCGAAAGCUGGAGGGAGAAGGGCUCUAAU [Mat - Exclusion 5 - Eli mod - D103] (puzzle: Exclusion 5)
- apparent KD of MS2 coat protein [2]: 0.178 µM
- apparent KD of MS2 coat protein [1]: 0.182 µM
- apparent KD of MS2 coat protein [3]: 0.13 µM

Sequence: GCACGGAAAUUCCAUAAAACCACAUGAGGAUCACCCAUGUCUCAGGAUAUGGUCUGGAUUACAGGCCAGAAGGGAGAACCGUGC [Eli exng3 - 059] (Eterna round: R96, puzzle: Exclusion NG 3)
- apparent KD of MS2 coat protein (input ligand: FMN 200 uM): 0.0151 µM
- apparent KD of MS2 coat protein [4]: 0.0102 µM
- apparent KD of MS2 coat protein (input ligand: none): 0.0118 µM

Sequence: UUUAGUUCAGGAUAUGUAGAAAUUAACAUGAGGAUCACCCAUGUCGAUCCUGAAUUAACUACAGAAGGGAACAUUU [Mod of Brourd 6 - Jieux - Exclusion 5] (Eterna round: R97, puzzle: Exclusion 5)
- apparent KD of MS2 coat protein (input ligand: FMN 200 uM): 0.05 µM
- apparent KD of MS2 coat protein (input ligand: none): 0.0142 µM

Sequence: AUUUUGUGAGGAUAUUAGUUGUAGAAAAUUGUUAGUAUAGCUGAGAAGGCACAUGAGGAUCACCCAUGUACAAC [JR_Ex4_Sub040] (Eterna round: R97, puzzle: Exclusion 4)
- apparent KD of MS2 coat protein (input ligand: FMN 200 uM): 0.0311 µM
- apparent KD of MS2 coat protein (input ligand: none): 0.0181 µM
